In patent publication US20230192890A1 (published 2023):
Residue numbers refer to the chain shown, from its start.

T1: Ala mutant having 3-amino acid substitution, SEQ ID NO: 45 (human)
T1 peptide: EENAAAQWMQDEMEIGY

T2: Ala mutant SEQ ID NO: 32 (human)
T2 peptide: EENMDAQWMQDEMEIGY

T3: Ala mutant SEQ ID NO: 35 (human)
T3 peptide: EENMDDQWAQDEMEIGY

T4: Ala mutant SEQ ID NO: 34 (human)
T4 peptide: EENMDDQAMQDEMEIGY

T5: Ala mutant having 3-amino acid substitution, SEQ ID NO: 46 (human)
T5 peptide: EENMDDAAAQDEMEIGY

B1: Humanized Ab #H7-H4.00/L4.29 (IgG1κ) (antibody, V domains shown)
VH: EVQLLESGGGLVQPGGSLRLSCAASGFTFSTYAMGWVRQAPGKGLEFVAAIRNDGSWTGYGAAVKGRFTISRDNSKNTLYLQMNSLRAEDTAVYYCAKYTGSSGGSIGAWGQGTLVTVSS
VL: SYELTQPPSVSVSPGQTARITCSGGSGRYYYGWYQQKPGQAPVTVIYSSTHRPSGIPERFSGSNSGSTTTLTISGVQAEDEADYYCGTADSSSYVFGGGTKLTVLG
notes: Full-length heavy and light chains; also called humanized anti-PAD4 antibody derived from H7
B2: A11 (antibody, IgG1, V domains shown)
VH: AVTLDESGGGLQTPGGALSLVCKASGFDFSSYGMGWMRQAPGKGLEYVAAIRNDGSWTGYGAAVKGHATISRDNGQSTVRLQLNNLRAEDTGTYYCAKTTGSRGGSIDAWGHGTEVIVS
VL: ASTQPSSVSANLGGTVEITCSGGGRYYYGWYQQKSPGSAPVTVIYANDKRPSDIPSRFSGSKSGSTGTLTITGVQAEDEAVYFCGSAETSSYVFGAGTTLTVL
notes: Chicken variable regions in mouse chimeric antibody (IgG1) expression vectors; also called anti-PAD4 antibody A11; A11 etc
B3: E9 (antibody, IgG1, V domains shown)
VH: B2 VH with A17T, A24G, D28T, A62S, H67R, G92A, T100S, R103S, I107V
VL: B2 VL
notes: Chicken variable regions in mouse chimeric antibody (IgG1) expression vectors; also called anti-PAD4 antibody E9; A11 etc
B4: G9 (antibody, IgG1, V domains shown)
VH: B2 VH with D28T, S31T, G33A, H67R, S71L, N84S, T99Y, R103S, D108G
VL: B2 VL with S2V, S6A
notes: Chicken variable regions in mouse chimeric antibody (IgG1) expression vectors; also called anti-PAD4 antibody G9; A11 etc
B5: G6 (antibody, IgG1, V domains shown)
VH: B2 VH with D28T, G35E, M37V, H67R, N74D, V79L, G92A, R103S
VL: B2 VL with G14E, E17K, R25N, V43L, D53N, S86T, E88D, S90G, S91K
notes: Chicken variable regions in mouse chimeric antibody (IgG1) expression vectors; also called anti-PAD4 antibody G6; A11 etc
B6: G8 (antibody, IgG1, V domains shown)
VH: B2 VH with D28T, S31T, G33A, H67R, S71L, N84S, T99Y, R103S, D108G
VL: ASTQPSSVSANLGGTVEITCSGGNRNYYYGWYQQKSPGSAPVTLIYANDKRPSNIPSRFSGSKSGSTGTLTITGVQAEDEAVYFCGTADTGKYVFGAGTTLTVL
notes: Chicken variable regions in mouse chimeric antibody (IgG1) expression vectors; also called anti-PAD4 antibody G8; A11 etc
B7: H7 (antibody, IgG1, V domains shown)
VH: B2 VH with D28T, S31T, G33A, H67R, S71L, N84S, T99Y, R103S, D108G
VL: ASTQPSSVSANPGGTVEITCSGGSGRYYYGWYQQKSPGSAPVTVIYSSTHRPSNIPSRFSGSKSGSTATLTITGVQAEDEAVYFCGTADSSSYVFGAGTTLTVL
notes: Chicken variable regions in mouse chimeric antibody (IgG1) expression vectors; also called anti-PAD4 antibody H7; A11 etc
B8: Humanized Ab #G8-H4.00/L4.29 (IgG1κ) (antibody, V domains shown)
VH: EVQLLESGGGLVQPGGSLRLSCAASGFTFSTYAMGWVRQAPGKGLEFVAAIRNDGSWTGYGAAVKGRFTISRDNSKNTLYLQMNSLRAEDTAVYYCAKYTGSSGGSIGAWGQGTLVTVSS
VL: B1 VL with S26N, G27R, R28N, S48A, S49N, T50D, H51K, S91T, S92G, S93K
notes: Full-length heavy and light chains; also called humanized anti-PAD4 antibody derived from G8; G8 VH H4.00 / VL L4.29

target: T6, full-length recombinant human PAD4 (human, UniProt Q9UM07 1-663); assay: Biacore T200, antibody captured by anti-human antibody, human PAD4 as analyte
T6 construct: also called peptidylarginine deiminase 4
Excerpt: The humanized anti-PAD4 antibodies derived from G8 and H7 were subjected to Biacore (GE Healthcare, Biacore T200) assay to evaluate their affinity. At that time, the combination of the frameworks was such that the H-chain framework was H4.00 and the L-chain framework was L4.29. The class of each antibody used was IgG1κ. Full-length recombinant human PAD4 was used as an antigen. A Human Antibody Capture kit (GE Healthcare, BR-1008-39) was used for the affinity assay. Specifically, in accordance with the standard protocol provided by the manufacture, NHS/EDC was used and an amine coupling method, in which a free carboxyl group is fixed on a surface of a CM5 chip, was used to immobilize a rabbit anti-human polyclonal antibody on the surface of a CM5 chip. Next, the humanized anti-PAD4 antibodies were each captured by the rabbit anti-human polyclonal antibody. Human PAD4 at each concentration was subjected to Biacore T200 measurement to create a kinetic sensorgram.

T6 sequence (Q9UM07 whole entry): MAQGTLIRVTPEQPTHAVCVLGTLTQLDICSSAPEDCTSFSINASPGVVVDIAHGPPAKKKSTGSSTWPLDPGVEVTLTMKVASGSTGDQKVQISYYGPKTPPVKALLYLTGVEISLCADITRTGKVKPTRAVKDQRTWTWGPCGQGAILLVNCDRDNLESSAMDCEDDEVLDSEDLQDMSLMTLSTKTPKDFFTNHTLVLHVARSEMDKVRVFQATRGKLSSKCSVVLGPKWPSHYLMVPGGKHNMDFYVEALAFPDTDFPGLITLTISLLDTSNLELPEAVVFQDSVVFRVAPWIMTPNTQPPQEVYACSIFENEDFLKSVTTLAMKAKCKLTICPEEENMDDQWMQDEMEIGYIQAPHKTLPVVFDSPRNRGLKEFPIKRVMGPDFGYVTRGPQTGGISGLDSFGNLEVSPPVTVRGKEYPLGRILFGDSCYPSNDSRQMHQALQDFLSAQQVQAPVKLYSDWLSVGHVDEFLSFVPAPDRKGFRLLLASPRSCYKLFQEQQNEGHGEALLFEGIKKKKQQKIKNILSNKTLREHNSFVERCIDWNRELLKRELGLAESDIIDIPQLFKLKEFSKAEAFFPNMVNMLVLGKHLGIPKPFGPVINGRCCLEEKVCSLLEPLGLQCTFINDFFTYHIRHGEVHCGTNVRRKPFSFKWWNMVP

With B1 the kon was 613000 M⁻¹ s⁻¹.

target: T6, full-length recombinant human PAD4; assay: ELISA, human PAD4 on plate, antibody 6.104E-05 ug/mL

Going from B2 to B3, the “absorbance 490 nm/630 nm” value rises from 0.063 OD to 0.07 OD.

First: B4
Second: B5
The “absorbance 490 nm/630 nm” value of the first is higher: 0.082 OD for the first, 0.075 OD for the second.

First: B6
Second: B7
The “absorbance 490 nm/630 nm” value of the first is lower: 0.1 OD for the first, 0.111 OD for the second.

target: T6, full-length recombinant human PAD4; assay: ELISA, human PAD4 on plate, antibody 0.0002441 ug/mL

First: B2
Second: B3
The “absorbance 490 nm/630 nm” value of the first is higher: 0.206 OD for the first, 0.176 OD for the second.

First: B4
Second: B5
The “absorbance 490 nm/630 nm” value of the first is higher: 0.187 OD for the first, 0.166 OD for the second.

Compared with B6, B7 is higher in “absorbance 490 nm/630 nm” value: 0.184 OD for the first, 0.217 OD for the second.

target: T6, full-length recombinant human PAD4; assay: Biacore T200, human PAD4 as analyte

B2 and B3 cannot be ordered by Kd: ≤ 9 nM for the first, ≤ 9 nM for the second.

B4 and B5 cannot be ordered by Kd: ≤ 9 nM for the first, ≤ 9 nM for the second.

B6 and B7 cannot be ordered by Kd: ≤ 9 nM for the first, ≤ 9 nM for the second.

B8 and B1 cannot be ordered by Kd: ≤ 9 nM for the first, ≤ 9 nM for the second.

target: T6, full-length recombinant human PAD4; assay: ELISA, human PAD4 on plate, antibody 0.0039063 ug/mL

Going from B2 to B3, the “absorbance 490 nm/630 nm” value rises from 1.31 OD to 1.36 OD.

Going from B4 to B5, the “absorbance 490 nm/630 nm” value falls from 1.36 OD to 1.16 OD.

First: B6
Second: B7
The “absorbance 490 nm/630 nm” value of the first is lower: 1.34 OD for the first, 1.35 OD for the second.

target: T6, full-length recombinant human PAD4; assay: ELISA, human PAD4 on plate, antibody 0.0625 ug/mL

First: B2
Second: B3
The “absorbance 490 nm/630 nm” value of the first is higher: 2.15 OD for the first, 2.12 OD for the second.

Going from B4 to B5, the “absorbance 490 nm/630 nm” value rises from 2.11 OD to 2.12 OD.

B6 and B7 are the same in “absorbance 490 nm/630 nm” value: 2.12 OD for the first, 2.12 OD for the second.

target: full-length recombinant human or mouse PAD4 (Example 4; which of the two is not told for the result); assay: cell-based or functional assay

Compared with B2, B3 is lower in Relative citrullination activity: 64 relative to PBS = 100 for the first, 59 relative to PBS = 100 for the second.

Compared with B4, B5 is higher in Relative citrullination activity: 68 relative to PBS = 100 for the first, 69 relative to PBS = 100 for the second.

Compared with B6, B7 is lower in Relative citrullination activity: 63 relative to PBS = 100 for the first, 35 relative to PBS = 100 for the second.

target: T6, full-length recombinant human PAD4; assay: ELISA, human PAD4 on plate, antibody 0.015625 ug/mL

B2 and B3 are the same in “absorbance 490 nm/630 nm” value: 2.08 OD for the first, 2.08 OD for the second.

Going from B4 to B5, the “absorbance 490 nm/630 nm” value falls from 2.07 OD to 2.01 OD.

First: B6
Second: B7
The “absorbance 490 nm/630 nm” value of the first is higher: 2.08 OD for the first, 2.07 OD for the second.

target: T6, full-length recombinant human PAD4; assay: ELISA, human PAD4 on plate, antibody 0.0009766 ug/mL

Compared with B2, B3 is lower in “absorbance 490 nm/630 nm” value: 0.511 OD for the first, 0.489 OD for the second.

Going from B4 to B5, the “absorbance 490 nm/630 nm” value falls from 0.534 OD to 0.437 OD.

Going from B6 to B7, the “absorbance 490 nm/630 nm” value falls from 0.544 OD to 0.537 OD.

Target: T1, Ala mutant having 3-amino acid …
Assay: ELISA, peptide on plate (10 ug/mL)

Compared with B2, B3 is lower in “absorbance 490 nm/630 nm” value: 0.039 OD for the first, 0.022 OD for the second.

Compared with B4, B5 is lower in “absorbance 490 nm/630 nm” value: 0.019 OD for the first, 0.018 OD for the second.

Compared with B6, B7 is lower in “absorbance 490 nm/630 nm” value: 0.065 OD for the first, 0.016 OD for the second.

Target: T2, Ala mutant SEQ ID NO: 32
Assay: ELISA, peptide on plate (10 ug/mL)

Going from B4 to B5, the “absorbance 490 nm/630 nm” value falls from 0.039 OD to 0.035 OD.

Going from B6 to B7, the “absorbance 490 nm/630 nm” value falls from 0.083 OD to 0.033 OD.

Target: T3, Ala mutant SEQ ID NO: 35
Assay: ELISA, peptide on plate (10 ug/mL)

Compared with B2, B3 is lower in “absorbance 490 nm/630 nm” value: 0.023 OD for the first, 0.017 OD for the second.

Going from B4 to B5, the “absorbance 490 nm/630 nm” value falls from 0.253 OD to 0.015 OD.

Compared with B6, B7 is lower in “absorbance 490 nm/630 nm” value: 0.233 OD for the first, 0.065 OD for the second.

Target: T4, Ala mutant SEQ ID NO: 34
Assay: ELISA, peptide on plate (10 ug/mL)

First: B2
Second: B3
The “absorbance 490 nm/630 nm” value of the first is lower: 0.021 OD for the first, 0.047 OD for the second.

Compared with B4, B5 is higher in “absorbance 490 nm/630 nm” value: 0.038 OD for the first, 0.042 OD for the second.

Compared with B6, B7 is higher in “absorbance 490 nm/630 nm” value: 0.04 OD for the first, 0.066 OD for the second.

Target: T5, Ala mutant having 3-amino acid …
Assay: ELISA, peptide on plate (10 ug/mL)

Compared with B2, B3 is lower in “absorbance 490 nm/630 nm” value: 0.043 OD for the first, 0.027 OD for the second.

Going from B5 to B7, the “absorbance 490 nm/630 nm” value falls from 0.083 OD to 0.044 OD.

target: T6, full-length recombinant human PAD4; assay: ELISA, human PAD4 on plate, antibody 0.25 ug/mL

First: B2
Second: B3
The “absorbance 490 nm/630 nm” value of the first is higher: 2.11 OD for the first, 2.08 OD for the second.

First: B4
Second: B5
The “absorbance 490 nm/630 nm” value of the first is higher: 2.08 OD for the first, 2.07 OD for the second.

Going from B6 to B7, the “absorbance 490 nm/630 nm” value rises from 2.1 OD to 2.11 OD.

target: T6, full-length recombinant human PAD4; assay: ELISA, human PAD4 on plate, antibody 1 ug/mL

Compared with B2, B3 is lower in “absorbance 490 nm/630 nm” value: 2.15 OD for the first, 2.11 OD for the second.

Compared with B4, B5 is higher in “absorbance 490 nm/630 nm” value: 2.1 OD for the first, 2.11 OD for the second.

Going from B6 to B7, the “absorbance 490 nm/630 nm” value falls from 2.12 OD to 2.11 OD.
